Results on 5 molecules are retold here after US20140120109A1 (Regeneron, published 2014).

Assay [1] addresses T1, human TL1A, soluble, CHO-expressed, residues 72-251 of SEQ ID NO:244 with N-terminal His6-tag (human, UniProt O95150 72-251).
T1 construct: also called hTL1A; hTL1A (CHO)
T1 sequence: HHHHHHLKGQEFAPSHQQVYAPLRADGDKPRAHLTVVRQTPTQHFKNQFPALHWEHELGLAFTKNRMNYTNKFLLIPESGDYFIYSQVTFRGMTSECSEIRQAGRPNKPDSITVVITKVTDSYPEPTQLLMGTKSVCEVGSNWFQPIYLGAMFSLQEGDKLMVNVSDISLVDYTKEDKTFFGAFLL
Kind of assay: SPR 25C, mAb captured. The method, boiled down:
(§1)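 Biacore T100 SPR with captured mAb and soluble TL1A/Fhm analyte; ka and kd fitted to a 1:1 model assuming monomeric TL1A. KD = kd/ka; t1/2 (min) = ln2/(60·kd).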

The target in assay [2] is T2, cynomolgus monkey TL1A, soluble, CHO-expressed, residues 72-251 of SEQ ID NO:248 with N-terminal His6-tag (cynomolgus monkey (Macaca fascicularis), UniProt O95150 72-251 (human entry)).
T2 construct: also called MfTL1A; MfTL1A (CHO)
T2 chain: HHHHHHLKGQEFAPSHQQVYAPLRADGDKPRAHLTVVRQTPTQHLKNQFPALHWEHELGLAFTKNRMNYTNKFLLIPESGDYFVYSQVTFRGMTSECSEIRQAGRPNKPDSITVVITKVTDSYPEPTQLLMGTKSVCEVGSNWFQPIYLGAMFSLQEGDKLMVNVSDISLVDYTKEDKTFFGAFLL
Kind of assay: SPR 25C, mAb captured. The method, boiled down: as §1

Assay [3] addresses T3, full length human TL1A expressed on HEK293 cells (human, UniProt O95150 1-251).
T3 sequence: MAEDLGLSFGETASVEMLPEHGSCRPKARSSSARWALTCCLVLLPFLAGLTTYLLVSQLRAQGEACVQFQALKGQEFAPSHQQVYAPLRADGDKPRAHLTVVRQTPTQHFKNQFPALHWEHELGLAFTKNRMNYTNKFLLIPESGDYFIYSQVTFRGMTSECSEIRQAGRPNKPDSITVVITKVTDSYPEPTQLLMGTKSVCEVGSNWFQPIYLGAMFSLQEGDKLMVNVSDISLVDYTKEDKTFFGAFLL
Kind of assay: cell-based or functional assay.

Assay [4] deals with T4, full-length Fhm, human TL1A(Q167R), expressed on HEK293 cells (human, UniProt O95150 1-251).
T4 sequence: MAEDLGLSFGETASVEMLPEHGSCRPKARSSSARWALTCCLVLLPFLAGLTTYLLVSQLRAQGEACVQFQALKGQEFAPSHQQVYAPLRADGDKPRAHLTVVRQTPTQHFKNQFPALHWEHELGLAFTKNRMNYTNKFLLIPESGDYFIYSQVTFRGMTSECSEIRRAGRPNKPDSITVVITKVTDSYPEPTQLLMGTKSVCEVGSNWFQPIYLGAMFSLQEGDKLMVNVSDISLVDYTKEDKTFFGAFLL
Kind of assay: cell-based or functional assay.

Assay [5] deals with T5, full-length cynomolgus monkey TL1A expressed on HEK293 cells (cynomolgus monkey (Macaca fascicularis), UniProt O95150 1-251 (human entry)).
T5 chain: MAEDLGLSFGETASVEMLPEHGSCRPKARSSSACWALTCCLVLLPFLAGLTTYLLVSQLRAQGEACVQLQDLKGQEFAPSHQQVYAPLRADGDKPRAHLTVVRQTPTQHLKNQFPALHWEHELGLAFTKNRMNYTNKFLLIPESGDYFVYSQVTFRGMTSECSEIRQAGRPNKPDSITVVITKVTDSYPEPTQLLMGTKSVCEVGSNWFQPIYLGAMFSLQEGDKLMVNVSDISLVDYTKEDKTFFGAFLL
Kind of assay: cell-based or functional assay.

Assay [6] concerns the target T2, cynomolgus monkey TL1A, soluble, …. Kind of assay: ELISA, blocks MfTL1A (500 pM) binding hDR3-Fc. The method, boiled down:
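Competition sandwich ELISA: biotinylated CHO-expressed ligand (human TL1A, FHM Q167R variant, or cynomolgus TL1A) at fixed concentration preincubated with titrated antibody 1 h at 25 °C, then 1 h on hDR3-Fc or hDcR3-Fc coated wells. Bound ligand detected by streptavidin-HRP/TMB at 450 nm; sigmoidal dose-response fit.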

B1: H4H1742P (antibody, human IgG4 S228P, V domains shown)
VH: EVQLVESGGGLVQPGGSLRLSCAASGFTFSNYVMNWVRQAPGKGLEWVSVISGSGGSTHYADSVKGRFTISRDNSKDALYLQMNSLRAEDTAVYYCAKGPLEAYYYYNGMDVWGQGTTVTVSS
VL: DIQLTQSPSFLSASVGDRVTITCWASQAISSYLAWYQHKPGRAPKLLIYSTSTLQSGVPSRFSGSGSGTEFTLTISSLQPEDFATYYCQQLNSYPTFGQGTKLEIK
Regarding B1, the Kd is 60.4 pM in assay [1] and 115 pM in assay [2]. Further, the t1/2 was 12.6 h in assay [1] and 9.62 h in assay [2]. In addition, the “IC50, reporter + 10,000 TL1A cells” value came out at 6550 pM in assay [3], 8390 pM in assay [4] and 18400 pM in assay [5]. In assay [6], this molecule showed an IC50 of 240 pM.

B2: H4H1745P (antibody, human IgG4 S228P, V domains shown)
VH: EVQLVESGGGLVQPGGSLRLSCAASGFTFSSYAMTWVRQAPGKGLEWVSGVSGRGGSTYYADSVKGRFTISRDNSKNTLYLQMNSLRAEDTAVYYCAYWDISSFDYWGQGTLVTVSS
VL: DIQLTQSPSFLSASVGDRVTITCWASQGISTYLAWYQQKPGKTPKLLIYAASTLQSGVPSRFSGSGSGTDFTLTISSLQPEDFATYYCQQFNSYPLTFGGGTKVEIK
Take B2: the Kd was 164 pM in assay [1] and 115 pM in assay [2]. Further, the t1/2 in assay [1] is 2.87 h; in assay [2], 3.85 h. Also, the “IC50, reporter + 10,000 TL1A cells” value in assay [3] was determined as 760 pM; in assay [4], 2120 pM; in assay [5], 4280 pM. Also, the IC50 in assay [6] is 50 pM.

B3: H4H1719P (antibody, human IgG4 S228P, V domains shown)
VH: EVQLVESGGGLVQPGRSLRLSCVASGFTFQDYAMHWVRQAPGKGLEWVSGINWISDDMGYADSVMGRFTISRDNAKNSLYLQMDSLRAEDTALYYCAKDKGLRFLDYVMDVWGQGTTVTVSA
VL: DIVMTQSPLSLPVTPGEPASISCRSTQSLLHRNGHNYLHWYLHKPGQSPQLLIHLGSNRASGVPDRFSGSGSGTDFTLKISRVEAEDVGVYYCMQALQTPYTFGQGTKLEIK
For the molecule B3, the Kd amounted to 481 pM in assay [1] and 417 pM in assay [2]. The results for the t1/2 in assay [1] and in assay [2] were 0.733 h and 0.75 h, respectively. For the same molecule, the “IC50, reporter + 10,000 TL1A cells” value in assay [3] turned out to be 820 pM; in assay [4], 840 pM; in assay [5], 3000 pM. The molecule further came in with an IC50 in assay [6] of 46 pM.

B4: H4H1738P (antibody, human IgG4 S228P, V domains shown)
VH: EVQLVESGGALVKPGGSLRLSCAVSGFTFINDWMNWVRQAPGKGLEWVGRIKSTTDGGTTDDAAPVKGRFTISRDDSKNTLYLQMNSLKTEDTAVYYCTRDRNRQRNYFYDGMDVWGQGTTVTVSA
VL: DIVMTQSPVSLPVTPGEPASISCRSSQRLLHNNGNNYLDWYLQKPGQSPQLLIYLGSNRASGVPDRFSGSGSGTDFTLKVSRVEAEDVGVYYCMQALQTPYTFGQGTKLEIK
For B4, the Kd in assay [1] is 608 pM; in assay [2], 361 pM. For the same molecule, the t1/2 was found to be 1.07 h in assay [1] and 1.55 h in assay [2]. Further, the figures for the “IC50, reporter + 10,000 TL1A cells” value in assay [3], in assay [4] and in assay [5] were 7470 pM, 7750 pM and 20200 pM, respectively. In addition, the IC50 in assay [6] is 117 pM.

B5: H4H1725P (antibody, human IgG4 S228P, V domains shown)
VH: QVQLVQSGAEVKKPGASVKVSCKASGYTFTGYYMHWVRQAPGQGLEWMGWIKPKSGGTNYVQKFQGRVTMTRDTSINTAYMELNNLKSDDTAVYYCATGGSQDASDFWGQGTMVTVSS
VL: DIQMTQSPSSVSASVGGRVTITCRASQDISIWLAWYQQKPGKAPNLLIYAASSLQSGVPSRFSGSGSGTDFTLTISSLQPEDFATYYCQQADSFPLTFGGGTKVEIK
For the molecule B5, the Kd in assay [1] is 63.6 pM; in assay [2], 346 pM. Also, the t1/2 in assay [1] came out at 3.08 h; in assay [2], 1.07 h. For the same molecule, the “IC50, reporter + 10,000 TL1A cells” value in assay [3] worked out at 660 pM; in assay [4] it was 940 pM; in assay [5] it was 2820 pM. The molecule also came in with an IC50 in assay [6] of 16 pM.
